First the molecules themselves.
B1: CD25 L2F mutant (CD25-Fc) (Fc fusion)
chain: EFCDDDPPEIPHATFKAMAYKEGTMLNCECKRGFRRIKSGSLYMLCTGNSSHSSWDNQCQCTSSATRNTTKQVTPQPEEQKERKTTEMQSPMQPVDQASLPGHCREPPPWENEATERIYHFVVGQMVYYQCVQGYRALHRGPAESVCKMTHGKTRWTQPQLICTGEMETSQFPGEEKPQASPEGRPESETSCLVTTTDFQIQTEMAATMETSIFTTEYQ
notes: not shown: Fc part of CD25-Fc
B2: CD25 T47N mutant (CD25-Fc) (Fc fusion)
chain: ELCDDDPPEIPHATFKAMAYKEGTMLNCECKRGFRRIKSGSLYMLCNGNSSHSSWDNQCQCTSSATRNTTKQVTPQPEEQKERKTTEMQSPMQPVDQASLPGHCREPPPWENEATERIYHFVVGQMVYYQCVQGYRALHRGPAESVCKMTHGKTRWTQPQLICTGEMETSQFPGEEKPQASPEGRPESETSCLVTTTDFQIQTEMAATMETSIFTTEYQ
notes: not shown: Fc part of CD25-Fc
B3: CD25 L42W mutant (CD25-Fc) (Fc fusion)
chain: ELCDDDPPEIPHATFKAMAYKEGTMLNCECKRGFRRIKSGSWYMLCTGNSSHSSWDNQCQCTSSATRNTTKQVTPQPEEQKERKTTEMQSPMQPVDQASLPGHCREPPPWENEATERIYHFVVGQMVYYQCVQGYRALHRGPAESVCKMTHGKTRWTQPQLICTGEMETSQFPGEEKPQASPEGRPESETSCLVTTTDFQIQTEMAATMETSIFTTEYQ
notes: not shown: Fc part of CD25-Fc
B4: CD25 L42F mutant (CD25-Fc) (Fc fusion)
chain: ELCDDDPPEIPHATFKAMAYKEGTMLNCECKRGFRRIKSGSFYMLCTGNSSHSSWDNQCQCTSSATRNTTKQVTPQPEEQKERKTTEMQSPMQPVDQASLPGHCREPPPWENEATERIYHFVVGQMVYYQCVQGYRALHRGPAESVCKMTHGKTRWTQPQLICTGEMETSQFPGEEKPQASPEGRPESETSCLVTTTDFQIQTEMAATMETSIFTTEYQ
notes: not shown: Fc part of CD25-Fc
B5: CD25 L2Y mutant (CD25-Fc) (Fc fusion)
chain: EYCDDDPPEIPHATFKAMAYKEGTMLNCECKRGFRRIKSGSLYMLCTGNSSHSSWDNQCQCTSSATRNTTKQVTPQPEEQKERKTTEMQSPMQPVDQASLPGHCREPPPWENEATERIYHFVVGQMVYYQCVQGYRALHRGPAESVCKMTHGKTRWTQPQLICTGEMETSQFPGEEKPQASPEGRPESETSCLVTTTDFQIQTEMAATMETSIFTTEYQ
notes: not shown: Fc part of CD25-Fc
B6: CD25 S41N mutant (CD25-Fc) (Fc fusion)
chain: ELCDDDPPEIPHATFKAMAYKEGTMLNCECKRGFRRIKSGNLYMLCTGNSSHSSWDNQCQCTSSATRNTTKQVTPQPEEQKERKTTEMQSPMQPVDQASLPGHCREPPPWENEATERIYHFVVGQMVYYQCVQGYRALHRGPAESVCKMTHGKTRWTQPQLICTGEMETSQFPGEEKPQASPEGRPESETSCLVTTTDFQIQTEMAATMETSIFTTEYQ
notes: not shown: Fc part of CD25-Fc
B7: CD25 S41D mutant (CD25-Fc) (Fc fusion)
chain: ELCDDDPPEIPHATFKAMAYKEGTMLNCECKRGFRRIKSGDLYMLCTGNSSHSSWDNQCQCTSSATRNTTKQVTPQPEEQKERKTTEMQSPMQPVDQASLPGHCREPPPWENEATERIYHFVVGQMVYYQCVQGYRALHRGPAESVCKMTHGKTRWTQPQLICTGEMETSQFPGEEKPQASPEGRPESETSCLVTTTDFQIQTEMAATMETSIFTTEYQ
notes: not shown: Fc part of CD25-Fc
B8: CD25 S41E mutant (CD25-Fc) (Fc fusion)
chain: ELCDDDPPEIPHATFKAMAYKEGTMLNCECKRGFRRIKSGELYMLCTGNSSHSSWDNQCQCTSSATRNTTKQVTPQPEEQKERKTTEMQSPMQPVDQASLPGHCREPPPWENEATERIYHFVVGQMVYYQCVQGYRALHRGPAESVCKMTHGKTRWTQPQLICTGEMETSQFPGEEKPQASPEGRPESETSCLVTTTDFQIQTEMAATMETSIFTTEYQ
notes: not shown: Fc part of CD25-Fc
B9: CD25 T47S mutant (CD25-Fc) (Fc fusion)
chain: ELCDDDPPEIPHATFKAMAYKEGTMLNCECKRGFRRIKSGSLYMLCSGNSSHSSWDNQCQCTSSATRNTTKQVTPQPEEQKERKTTEMQSPMQPVDQASLPGHCREPPPWENEATERIYHFVVGQMVYYQCVQGYRALHRGPAESVCKMTHGKTRWTQPQLICTGEMETSQFPGEEKPQASPEGRPESETSCLVTTTDFQIQTEMAATMETSIFTTEYQ
notes: not shown: Fc part of CD25-Fc
B10: CD25 L42G mutant (CD25-Fc) (Fc fusion)
chain: ELCDDDPPEIPHATFKAMAYKEGTMLNCECKRGFRRIKSGSGYMLCTGNSSHSSWDNQCQCTSSATRNTTKQVTPQPEEQKERKTTEMQSPMQPVDQASLPGHCREPPPWENEATERIYHFVVGQMVYYQCVQGYRALHRGPAESVCKMTHGKTRWTQPQLICTGEMETSQFPGEEKPQASPEGRPESETSCLVTTTDFQIQTEMAATMETSIFTTEYQ
notes: not shown: Fc part of CD25-Fc
B11: CD25 L42V mutant (CD25-Fc) (Fc fusion)
chain: ELCDDDPPEIPHATFKAMAYKEGTMLNCECKRGFRRIKSGSVYMLCTGNSSHSSWDNQCQCTSSATRNTTKQVTPQPEEQKERKTTEMQSPMQPVDQASLPGHCREPPPWENEATERIYHFVVGQMVYYQCVQGYRALHRGPAESVCKMTHGKTRWTQPQLICTGEMETSQFPGEEKPQASPEGRPESETSCLVTTTDFQIQTEMAATMETSIFTTEYQ
notes: not shown: Fc part of CD25-Fc
B12: CD25 L42I mutant (CD25-Fc) (Fc fusion)
chain: ELCDDDPPEIPHATFKAMAYKEGTMLNCECKRGFRRIKSGSIYMLCTGNSSHSSWDNQCQCTSSATRNTTKQVTPQPEEQKERKTTEMQSPMQPVDQASLPGHCREPPPWENEATERIYHFVVGQMVYYQCVQGYRALHRGPAESVCKMTHGKTRWTQPQLICTGEMETSQFPGEEKPQASPEGRPESETSCLVTTTDFQIQTEMAATMETSIFTTEYQ
notes: not shown: Fc part of CD25-Fc
B13: CD25 L2I mutant (CD25-Fc) (Fc fusion)
chain: EICDDDPPEIPHATFKAMAYKEGTMLNCECKRGFRRIKSGSLYMLCTGNSSHSSWDNQCQCTSSATRNTTKQVTPQPEEQKERKTTEMQSPMQPVDQASLPGHCREPPPWENEATERIYHFVVGQMVYYQCVQGYRALHRGPAESVCKMTHGKTRWTQPQLICTGEMETSQFPGEEKPQASPEGRPESETSCLVTTTDFQIQTEMAATMETSIFTTEYQ
notes: not shown: Fc part of CD25-Fc
B14: CD25 S41Q mutant (CD25-Fc) (Fc fusion)
chain: ELCDDDPPEIPHATFKAMAYKEGTMLNCECKRGFRRIKSGQLYMLCTGNSSHSSWDNQCQCTSSATRNTTKQVTPQPEEQKERKTTEMQSPMQPVDQASLPGHCREPPPWENEATERIYHFVVGQMVYYQCVQGYRALHRGPAESVCKMTHGKTRWTQPQLICTGEMETSQFPGEEKPQASPEGRPESETSCLVTTTDFQIQTEMAATMETSIFTTEYQ
notes: not shown: Fc part of CD25-Fc
B15: CD25 T47D mutant (CD25-Fc) (Fc fusion)
chain: ELCDDDPPEIPHATFKAMAYKEGTMLNCECKRGFRRIKSGSLYMLCDGNSSHSSWDNQCQCTSSATRNTTKQVTPQPEEQKERKTTEMQSPMQPVDQASLPGHCREPPPWENEATERIYHFVVGQMVYYQCVQGYRALHRGPAESVCKMTHGKTRWTQPQLICTGEMETSQFPGEEKPQASPEGRPESETSCLVTTTDFQIQTEMAATMETSIFTTEYQ
notes: not shown: Fc part of CD25-Fc
B16: CD25 Y43R mutant (CD25-Fc) (Fc fusion)
chain: ELCDDDPPEIPHATFKAMAYKEGTMLNCECKRGFRRIKSGSLRMLCTGNSSHSSWDNQCQCTSSATRNTTKQVTPQPEEQKERKTTEMQSPMQPVDQASLPGHCREPPPWENEATERIYHFVVGQMVYYQCVQGYRALHRGPAESVCKMTHGKTRWTQPQLICTGEMETSQFPGEEKPQASPEGRPESETSCLVTTTDFQIQTEMAATMETSIFTTEYQ
notes: not shown: Fc part of CD25-Fc
B17: CD25 L42Y mutant (CD25-Fc) (Fc fusion)
chain: ELCDDDPPEIPHATFKAMAYKEGTMLNCECKRGFRRIKSGSYYMLCTGNSSHSSWDNQCQCTSSATRNTTKQVTPQPEEQKERKTTEMQSPMQPVDQASLPGHCREPPPWENEATERIYHFVVGQMVYYQCVQGYRALHRGPAESVCKMTHGKTRWTQPQLICTGEMETSQFPGEEKPQASPEGRPESETSCLVTTTDFQIQTEMAATMETSIFTTEYQ
notes: not shown: Fc part of CD25-Fc
B18: CD25 L42A mutant (CD25-Fc) (Fc fusion)
chain: ELCDDDPPEIPHATFKAMAYKEGTMLNCECKRGFRRIKSGSAYMLCTGNSSHSSWDNQCQCTSSATRNTTKQVTPQPEEQKERKTTEMQSPMQPVDQASLPGHCREPPPWENEATERIYHFVVGQMVYYQCVQGYRALHRGPAESVCKMTHGKTRWTQPQLICTGEMETSQFPGEEKPQASPEGRPESETSCLVTTTDFQIQTEMAATMETSIFTTEYQ
notes: not shown: Fc part of CD25-Fc

T1 sequence (VH, as listed by the source limits assumed, chain 1 of 2): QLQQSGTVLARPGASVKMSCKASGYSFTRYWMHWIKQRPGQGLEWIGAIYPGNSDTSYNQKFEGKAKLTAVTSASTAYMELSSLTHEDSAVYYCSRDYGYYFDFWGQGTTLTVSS
T1 sequence (VL, as listed by the source limits assumed, chain 2 of 2): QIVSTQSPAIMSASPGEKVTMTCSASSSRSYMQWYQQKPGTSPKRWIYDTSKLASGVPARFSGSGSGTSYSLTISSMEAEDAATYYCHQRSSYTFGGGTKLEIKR

The test addresses T1, basiliximab fab.
T1 construct: The assay used a Fab of basiliximab; Chimeric antibody: human IgG1 constant, mouse variable domains
As to the kind of experiment: BLI; CD25-Fc on anti-hFc biosensor, basiliximab Fab in solution; global 1:1 fit.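 Further: biolayer interferometry signals normalized against a reference probe and smoothed with a Savitzky-Golay filter before the global fit.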
Method: Briefly, binding affinity (KD) of CD25 mutants from Table 1 was measured using biolayer interferometry. […] Experimental data was normalized to a reference probe and high-frequency noise was removed by Savitzky-Golay filtering. On and off-rate constants were determined using a globally fitted 1:1 binding model.
For B1, the Kd (in general, the constant that tells how readily two partners part at equilibrium) came to 1.07 nM; the koff (commonly the rate constant with which the complex falls apart) turned out to be 0.00252 s⁻¹; the on-rate (kon) – broadly, the second-order rate constant of association – worked out at 2.36e+06 M⁻¹ s⁻¹.

Turning to B2, the Kd worked out at 12.8 nM, the koff was determined as 0.00776 s⁻¹ and the kon was 608000 M⁻¹ s⁻¹.

B3 registered a Kd of 1.04 nM, a koff of 0.000201 s⁻¹ and a kon of 194000 M⁻¹ s⁻¹.

For B4, binding was characterised by a dissociation constant (Kd) of 7.65 nM, the koff was found to be 0.000772 s⁻¹ and the kon is 101000 M⁻¹ s⁻¹.

The molecule B5 came in with a dissociation constant Kd of 1.51 nM, a koff of 0.00263 s⁻¹ and an on-rate (kon) of 1.75e+06 M⁻¹ s⁻¹.

In turn, B6 showed a Kd of 3.85 nM, a koff of 0.00707 s⁻¹ and a kon of 1.84e+06 M⁻¹ s⁻¹.

The molecule B7 came in with a Kd of 6.49 nM, a koff of 0.00708 s⁻¹ and a kon of 1.09e+06 M⁻¹ s⁻¹.

Molecule B8 registered a Kd of 6.08 nM, a koff of 0.00719 s⁻¹ and a kon of 1.18e+06 M⁻¹ s⁻¹.

In the case of B9, the Kd is 4.49 nM, the koff came out at 0.00588 s⁻¹ and the kon was found to be 1.31e+06 M⁻¹ s⁻¹.

Turning to B10, the Kd turned out to be 1.14 nM, the dissociation rate constant (koff) amounted to 0.000152 s⁻¹ and the kon was determined as 133000 M⁻¹ s⁻¹.

For B11, binding was characterised by a dissociation constant (Kd) of 3.93 nM, the off-rate constant (koff) was determined as 0.000748 s⁻¹ and the on-rate constant (kon) came out at 190000 M⁻¹ s⁻¹.

B12 returned a Kd of 23.3 nM, a koff of 0.0116 s⁻¹ and a kon of 499000 M⁻¹ s⁻¹.

B13: the Kd amounted to 3.46 nM, the koff came out at 0.000734 s⁻¹ and the kon stood at 212000 M⁻¹ s⁻¹.

As to B14, the Kd worked out at 5.25 nM, the koff was 0.00512 s⁻¹ and the kon stood at 975000 M⁻¹ s⁻¹.

B15 registered a Kd of 3.66 nM, a koff of 0.00787 s⁻¹ and a kon of 2.15e+06 M⁻¹ s⁻¹.

As to B16, the equilibrium dissociation constant (Kd) amounted to 1.39 nM, the koff was found to be 0.000399 s⁻¹ and the kon is 236000 M⁻¹ s⁻¹.

B17 had a Kd of 1.75 nM, a koff of 0.000325 s⁻¹ and a kon of 186000 M⁻¹ s⁻¹.

As to B18, the affinity, expressed as Kd, was 0.242 nM; the koff came to 2.49e-05 s⁻¹; the kon was 103000 M⁻¹ s⁻¹.
